125 sequences from the supplement of paper PMC9112550, “Optimization of the antimicrobial peptide Bac7 by deep mutational scanning” (BMC Biology, 2022) can be followed below.

For the data set, the system named is Escherichia coli TOP10. As to the kind of experiment: shrunken log2 fold change of peptide-encoding DNA abundance (4.5 h post-induction vs induction); higher = less antimicrobial activity (less host growth inhibition). As to conditions: time post-induction: 4.5 h; library: site-saturation at positions 5, 18, 19, 20.
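Further: peptides expressed intracellularly from a pBAD plasmid library in pooled LB shake-flask culture, induced with 0.3% L-arabinose, DNA abundance read by NGS, three biological replicates, DESeq2 with apeglm shrinkage.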

For the sequence RRIRPRPPRLPRPRPRPCIDPRP, the “shrunken log2 fold change” value is -0.742.

For the sequence RRIRLRPPRLPRPRPRPVVPPRP, the “shrunken log2 fold change” value was found to be 0.139.

For the sequence RRIRKRPPRLPRPRPRPYCCPRP, the “shrunken log2 fold change” value was -0.237.

For RRIRTRPPRLPRPRPRPVSRPRP, the “shrunken log2 fold change” value worked out at 0.464.

For the sequence RRIRLRPPRLPRPRPRPQTHPRP, the “shrunken log2 fold change” value was determined as 0.0338.

For the sequence RRIRPRPPRLPRPRPRPPCDPRP, the “shrunken log2 fold change” value is 0.182.

For the sequence RRIRRRPPRLPRPRPRPVNWPRP, the “shrunken log2 fold change” value was determined as 0.439.

With RRIRRRPPRLPRPRPRPIPLPRP, the “shrunken log2 fold change” value came to 0.194.

With RRIRMRPPRLPRPRPRPEMFPRP, the “shrunken log2 fold change” value turned out to be 2.24.

Take RRIRHRPPRLPRPRPRPPGAPRP: the “shrunken log2 fold change” value turned out to be 0.935.

As for RRIRNRPPRLPRPRPRPLHRPRP, the “shrunken log2 fold change” value was -0.249.

In the case of RRIRQRPPRLPRPRPRPSFTPRP, the “shrunken log2 fold change” value is -1.12.

Regarding RRIRPRPPRLPRPRPRPRELPRP, the “shrunken log2 fold change” value came out at 0.39.

Regarding RRIRWRPPRLPRPRPRPGKYPRP, the “shrunken log2 fold change” value is -0.227.

Regarding RRIRQRPPRLPRPRPRPCDFPRP, the “shrunken log2 fold change” value is 0.0344.

For RRIRIRPPRLPRPRPRPAATPRP, the “shrunken log2 fold change” value was 0.0455.

For the sequence RRIRTRPPRLPRPRPRPFPQPRP, the “shrunken log2 fold change” value is -0.042.

On to RRIRVRPPRLPRPRPRPQYWPRP, for which the “shrunken log2 fold change” value was -0.265.

RRIRARPPRLPRPRPRPRMEPRP: the “shrunken log2 fold change” value was 0.539.

With RRIRDRPPRLPRPRPRPVEDPRP, the “shrunken log2 fold change” value amounted to 0.429.

For RRIRPRPPRLPRPRPRPLQYPRP, the “shrunken log2 fold change” value was -0.478.

In the case of RRIRKRPPRLPRPRPRPLCMPRP, the “shrunken log2 fold change” value is 0.081.

For the sequence RRIRWRPPRLPRPRPRPQEIPRP, the “shrunken log2 fold change” value is -0.0137.

Turning to RRIRFRPPRLPRPRPRPEMCPRP, the “shrunken log2 fold change” value is -0.0817.

With RRIRNRPPRLPRPRPRPRNNPRP, the “shrunken log2 fold change” value was -0.45.

As to RRIRYRPPRLPRPRPRPGPFPRP, the “shrunken log2 fold change” value was -0.189.

For the sequence RRIRVRPPRLPRPRPRPDHVPRP, the “shrunken log2 fold change” value was -0.0193.

With RRIRWRPPRLPRPRPRPFEFPRP, the “shrunken log2 fold change” value was -0.182.

Consider RRIRFRPPRLPRPRPRPNGFPRP, for which the “shrunken log2 fold change” value was 0.000958.

For RRIRWRPPRLPRPRPRPPYTPRP, the “shrunken log2 fold change” value is -0.137.

On to RRIRWRPPRLPRPRPRPTSMPRP, for which the “shrunken log2 fold change” value is -0.0665.

In the case of RRIRKRPPRLPRPRPRPMKLPRP, the “shrunken log2 fold change” value worked out at 0.0347.

As for RRIRRRPPRLPRPRPRPPSAPRP, the “shrunken log2 fold change” value stood at 0.626.

In the case of RRIRLRPPRLPRPRPRPTLVPRP, the “shrunken log2 fold change” value was -0.0392.

RRIRQRPPRLPRPRPRPVKFPRP: the “shrunken log2 fold change” value is -0.0717.

As to RRIRWRPPRLPRPRPRPNHPPRP, the “shrunken log2 fold change” value is -0.0659.

Regarding RRIRQRPPRLPRPRPRPEMGPRP, the “shrunken log2 fold change” value is 0.223.

For the sequence RRIRRRPPRLPRPRPRPEHEPRP, the “shrunken log2 fold change” value was 0.0952.

Turning to RRIRQRPPRLPRPRPRPHSVPRP, the “shrunken log2 fold change” value was -0.0178.

For RRIRDRPPRLPRPRPRPGKQPRP, the “shrunken log2 fold change” value is -0.0597.

As to RRIRNRPPRLPRPRPRPIETPRP, the “shrunken log2 fold change” value was -0.0081.

As for RRIRVRPPRLPRPRPRPDHHPRP, the “shrunken log2 fold change” value is -0.392.

On to RRIRARPPRLPRPRPRPQWTPRP, for which the “shrunken log2 fold change” value was 0.164.

As for RRIRFRPPRLPRPRPRPIMWPRP, the “shrunken log2 fold change” value stood at 0.0691.

As for RRIRYRPPRLPRPRPRPVPSPRP, the “shrunken log2 fold change” value was -0.404.

For the sequence RRIRCRPPRLPRPRPRPKQAPRP, the “shrunken log2 fold change” value is -0.0334.

Regarding RRIRSRPPRLPRPRPRPRNIPRP, the “shrunken log2 fold change” value is -0.28.

As to RRIRNRPPRLPRPRPRPNCYPRP, the “shrunken log2 fold change” value was -0.618.

Regarding RRIRVRPPRLPRPRPRPTYNPRP, the “shrunken log2 fold change” value was -0.769.

For the sequence RRIRYRPPRLPRPRPRPKAIPRP, the “shrunken log2 fold change” value is -0.497.

As for RRIRQRPPRLPRPRPRPQDLPRP, the “shrunken log2 fold change” value is -0.243.

For the sequence RRIRNRPPRLPRPRPRPFHFPRP, the “shrunken log2 fold change” value is -0.359.

With RRIRRRPPRLPRPRPRPGHCPRP, the “shrunken log2 fold change” value was 0.0653.

As for RRIRYRPPRLPRPRPRPNDQPRP, the “shrunken log2 fold change” value was -0.819.

Regarding RRIRGRPPRLPRPRPRPNPTPRP, the “shrunken log2 fold change” value stood at 0.602.

Consider RRIRIRPPRLPRPRPRPVNRPRP, for which the “shrunken log2 fold change” value was -0.195.

With RRIRPRPPRLPRPRPRPLHMPRP, the “shrunken log2 fold change” value is -0.342.

Turning to RRIRGRPPRLPRPRPRPHEEPRP, the “shrunken log2 fold change” value is 0.383.

Consider RRIRNRPPRLPRPRPRPHFWPRP, for which the “shrunken log2 fold change” value was -0.285.

RRIRQRPPRLPRPRPRPIDAPRP: the “shrunken log2 fold change” value is 0.000655.

In the case of RRIRYRPPRLPRPRPRPRFKPRP, the “shrunken log2 fold change” value was -0.302.

On to RRIRKRPPRLPRPRPRPFPWPRP, for which the “shrunken log2 fold change” value worked out at 0.582.

RRIRSRPPRLPRPRPRPLTAPRP: the “shrunken log2 fold change” value was -0.0374.

As to RRIRTRPPRLPRPRPRPHNDPRP, the “shrunken log2 fold change” value was -1.58.

Regarding RRIRIRPPRLPRPRPRPCKHPRP, the “shrunken log2 fold change” value was -0.118.

On to RRIRIRPPRLPRPRPRPFLPPRP, for which the “shrunken log2 fold change” value is -0.4.

On to RRIRHRPPRLPRPRPRPFKRPRP, for which the “shrunken log2 fold change” value was found to be 0.0885.

On to RRIRFRPPRLPRPRPRPNHIPRP, for which the “shrunken log2 fold change” value is -0.937.

With RRIRARPPRLPRPRPRPYTRPRP, the “shrunken log2 fold change” value is -0.124.

Take RRIRCRPPRLPRPRPRPAFHPRP: the “shrunken log2 fold change” value was -0.389.

Take RRIRDRPPRLPRPRPRPECRPRP: the “shrunken log2 fold change” value was 1.03.

Turning to RRIRNRPPRLPRPRPRPIEYPRP, the “shrunken log2 fold change” value was -0.0134.

As to RRIRPRPPRLPRPRPRPGHYPRP, the “shrunken log2 fold change” value is -0.0973.

RRIRMRPPRLPRPRPRPVGEPRP: the “shrunken log2 fold change” value was 0.141.

Take RRIRARPPRLPRPRPRPVSDPRP: the “shrunken log2 fold change” value stood at 0.576.

Take RRIRYRPPRLPRPRPRPQMKPRP: the “shrunken log2 fold change” value was -1.17.

With RRIRTRPPRLPRPRPRPHYMPRP, the “shrunken log2 fold change” value is -0.476.

For the sequence RRIRIRPPRLPRPRPRPPIIPRP, the “shrunken log2 fold change” value was -0.0124.

On to RRIRGRPPRLPRPRPRPWPEPRP, for which the “shrunken log2 fold change” value is 0.29.

Take RRIRERPPRLPRPRPRPVRNPRP: the “shrunken log2 fold change” value was -0.41.

RRIRPRPPRLPRPRPRPWWEPRP: the “shrunken log2 fold change” value is 0.0134.

For the sequence RRIRFRPPRLPRPRPRPGMWPRP, the “shrunken log2 fold change” value was 0.231.

As for RRIRLRPPRLPRPRPRPVYKPRP, the “shrunken log2 fold change” value is -0.134.

For the sequence RRIRSRPPRLPRPRPRPGQDPRP, the “shrunken log2 fold change” value is -0.329.

Take RRIRRRPPRLPRPRPRPEFLPRP: the “shrunken log2 fold change” value turned out to be 0.441.

On to RRIRFRPPRLPRPRPRPEACPRP, for which the “shrunken log2 fold change” value is -0.0833.

Turning to RRIRIRPPRLPRPRPRPENGPRP, the “shrunken log2 fold change” value was -0.219.

Regarding RRIRTRPPRLPRPRPRPGIRPRP, the “shrunken log2 fold change” value was -0.0147.

For the sequence RRIRIRPPRLPRPRPRPASNPRP, the “shrunken log2 fold change” value is -0.205.

RRIRSRPPRLPRPRPRPLNEPRP: the “shrunken log2 fold change” value is -0.177.

Regarding RRIRKRPPRLPRPRPRPRIRPRP, the “shrunken log2 fold change” value was found to be 0.344.

As for RRIRIRPPRLPRPRPRPFQEPRP, the “shrunken log2 fold change” value is -0.0383.

Take RRIRLRPPRLPRPRPRPVLDPRP: the “shrunken log2 fold change” value is -0.366.

Consider RRIRLRPPRLPRPRPRPLKSPRP, for which the “shrunken log2 fold change” value is -0.146.

For the sequence RRIRARPPRLPRPRPRPFHKPRP, the “shrunken log2 fold change” value is -0.148.

As to RRIRERPPRLPRPRPRPVHDPRP, the “shrunken log2 fold change” value is -0.687.

As for RRIRHRPPRLPRPRPRPGWDPRP, the “shrunken log2 fold change” value is 0.18.

For the sequence RRIRRRPPRLPRPRPRPDDPPRP, the “shrunken log2 fold change” value was -0.0033.

With RRIRMRPPRLPRPRPRPSLIPRP, the “shrunken log2 fold change” value is -0.245.

For RRIRCRPPRLPRPRPRPNRWPRP, the “shrunken log2 fold change” value was 0.0409.

Regarding RRIRIRPPRLPRPRPRPTFRPRP, the “shrunken log2 fold change” value was -0.261.

Consider RRIRIRPPRLPRPRPRPQAEPRP, for which the “shrunken log2 fold change” value amounted to 0.172.

Turning to RRIRFRPPRLPRPRPRPMCPPRP, the “shrunken log2 fold change” value was -0.176.

Regarding RRIRWRPPRLPRPRPRPMHIPRP, the “shrunken log2 fold change” value was determined as 0.0409.

For RRIRARPPRLPRPRPRPSTQPRP, the “shrunken log2 fold change” value turned out to be 0.265.

For RRIRQRPPRLPRPRPRPHFQPRP, the “shrunken log2 fold change” value is -0.108.

Consider RRIRQRPPRLPRPRPRPKHWPRP, for which the “shrunken log2 fold change” value came out at 0.0984.

With RRIRLRPPRLPRPRPRPKYNPRP, the “shrunken log2 fold change” value is -0.703.

Turning to RRIRMRPPRLPRPRPRPWLYPRP, the “shrunken log2 fold change” value was -0.0206.

Take RRIRARPPRLPRPRPRPRCRPRP: the “shrunken log2 fold change” value turned out to be 0.427.

RRIRVRPPRLPRPRPRPKRLPRP: the “shrunken log2 fold change” value was 0.132.

Consider RRIRVRPPRLPRPRPRPAGHPRP, for which the “shrunken log2 fold change” value is -0.1.

With RRIRGRPPRLPRPRPRPAWLPRP, the “shrunken log2 fold change” value stood at 0.694.

In the case of RRIRIRPPRLPRPRPRPQHYPRP, the “shrunken log2 fold change” value was -1.3.

In the case of RRIRKRPPRLPRPRPRPNYSPRP, the “shrunken log2 fold change” value was -0.0472.

RRIRTRPPRLPRPRPRPMITPRP: the “shrunken log2 fold change” value was -0.0731.

Regarding RRIRQRPPRLPRPRPRPQLVPRP, the “shrunken log2 fold change” value was found to be 0.128.

For RRIRYRPPRLPRPRPRPSMAPRP, the “shrunken log2 fold change” value is -0.572.

Take RRIRFRPPRLPRPRPRPAFLPRP: the “shrunken log2 fold change” value is -0.17.

Consider RRIRMRPPRLPRPRPRPRQFPRP, for which the “shrunken log2 fold change” value amounted to 0.582.

In the case of RRIRIRPPRLPRPRPRPRIDPRP, the “shrunken log2 fold change” value was -0.0642.

Regarding RRIRLRPPRLPRPRPRPPPAPRP, the “shrunken log2 fold change” value was 1.52.

Turning to RRIRPRPPRLPRPRPRPEPGPRP, the “shrunken log2 fold change” value worked out at 0.27.

In the case of RRIRVRPPRLPRPRPRPYWKPRP, the “shrunken log2 fold change” value was -0.074.

For the sequence RRIRLRPPRLPRPRPRPFVEPRP, the “shrunken log2 fold change” value is -0.478.
